Tests used:
[1] = biological target: Ustilago maydis Rad51 (U. maydis) (UniProt Q99133)
[2] = biological target: UmPot1 N-terminal fragment (OB-N) (Ustilago maydis, UniProt A0A0D1CUA9 1-350); test: EMSA; 25 mM HEPES-KOH pH 7.5, 5% glycerol, 3 mM MgCl2, 0.1 mM EDTA, 1 mM DTT, 0.5 ug/ul BSA, 1-10 nM probe, 22 C, 15 min; 6% native PAGE in 1x TBE; conditions: protein: recombinant; tags: C-terminal FLAG; His6-SUMO removed by ULP1; label: 5'-32P
UmPot1 OB3 = UmPot1 OB3 (Ustilago maydis, UniProt A0A0D1CUA9 701-1050); test: as above; conditions: protein: recombinant; tags: C-terminal FLAG; His6-SUMO removed by ULP1; label: 5'-32P
UmPot1 OB12 (OB1-OB2) = UmPot1 OB12 (OB1-OB2) (Ustilago maydis, UniProt A0A0D1CUA9 351-700); test: as above; conditions: protein: recombinant; tags: C-terminal FLAG; His6-SUMO removed by ULP1; label: 5'-32P

Chain of Ustilago maydis Rad51 (U. maydis) (Q99133 whole entry, the tested form may be a part): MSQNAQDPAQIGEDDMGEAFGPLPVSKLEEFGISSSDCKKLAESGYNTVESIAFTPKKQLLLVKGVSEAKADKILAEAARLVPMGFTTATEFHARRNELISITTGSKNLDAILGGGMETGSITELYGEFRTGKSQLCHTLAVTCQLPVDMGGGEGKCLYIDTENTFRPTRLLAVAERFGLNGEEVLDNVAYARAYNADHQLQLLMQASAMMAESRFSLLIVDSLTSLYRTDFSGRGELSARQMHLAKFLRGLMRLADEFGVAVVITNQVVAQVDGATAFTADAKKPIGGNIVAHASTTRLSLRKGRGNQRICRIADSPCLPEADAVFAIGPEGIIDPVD

Row | Molecule | strand exchange activity of Rad51 (oligonucleotide-based assay, 70-mer ssDNA and labeled 39-mer dsDNA), stimulation by Pot1 [1] | binding result [2] | binding result (UmPot1 OB3) | binding result (UmPot1 OB12 (OB1-OB2))
1 | Ustilago maydis Pot1 with a C-terminal FLAG tag (Pot1-FLAG) (natural protein) | 2 fold | – | – | –
2 | TTAGGGTTAGGGTTAGGGTTAGGG (ssDNA) [TTAGGG4 (G4)] | – | no binding | no binding | binds
